Key:
serum DP IV = target: T1, serum DP IV (Homo sapiens, UniProt P27487); test: MALDI-TOF mass spectra of a glucagon-serum mixture, serum DP IV-catalysed glucagon cleavage; type: biochemical; settings: no inhibitor, FIG. 2 A
T1 construct: from tissue; host or cells: serum
Text: Inhibition of Serum DP IV-catalysed Glucagon Cleavage by the DP IV Inhibitor Isoleticyl-thiazolidine

DP IV = DP IV (Homo sapiens, UniProt P27487); test: MALDI-TOF mass spectra of glucagon solution incubated with DP IV; type: biochemical; settings: 0.14 mmol glucagon solution, 40 mmol TRIS/HCL pH=7.6, 40 nmol DP IV; FIG. 1
DP IV, sequence (P27487 whole entry): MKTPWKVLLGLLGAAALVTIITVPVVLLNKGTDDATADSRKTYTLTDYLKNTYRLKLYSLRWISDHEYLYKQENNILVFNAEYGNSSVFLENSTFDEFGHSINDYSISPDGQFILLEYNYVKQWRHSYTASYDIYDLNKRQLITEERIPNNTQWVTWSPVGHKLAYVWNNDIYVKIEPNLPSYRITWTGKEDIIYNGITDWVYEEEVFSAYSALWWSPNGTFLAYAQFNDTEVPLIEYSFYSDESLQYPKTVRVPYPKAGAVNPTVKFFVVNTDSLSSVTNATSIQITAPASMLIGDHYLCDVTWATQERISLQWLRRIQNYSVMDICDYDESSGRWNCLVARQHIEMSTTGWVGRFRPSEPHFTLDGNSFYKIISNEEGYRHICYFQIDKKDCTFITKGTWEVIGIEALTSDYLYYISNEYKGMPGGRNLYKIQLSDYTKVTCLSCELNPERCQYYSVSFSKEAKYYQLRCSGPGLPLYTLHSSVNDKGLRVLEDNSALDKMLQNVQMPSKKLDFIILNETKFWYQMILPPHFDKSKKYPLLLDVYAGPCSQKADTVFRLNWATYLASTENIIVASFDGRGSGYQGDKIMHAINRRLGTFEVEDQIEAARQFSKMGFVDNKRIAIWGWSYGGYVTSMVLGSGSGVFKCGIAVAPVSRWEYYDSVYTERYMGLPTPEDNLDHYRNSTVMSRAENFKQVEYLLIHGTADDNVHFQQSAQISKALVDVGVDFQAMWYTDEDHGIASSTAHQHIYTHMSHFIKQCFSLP

T1 sequence (P27487 39-766 limits assumed): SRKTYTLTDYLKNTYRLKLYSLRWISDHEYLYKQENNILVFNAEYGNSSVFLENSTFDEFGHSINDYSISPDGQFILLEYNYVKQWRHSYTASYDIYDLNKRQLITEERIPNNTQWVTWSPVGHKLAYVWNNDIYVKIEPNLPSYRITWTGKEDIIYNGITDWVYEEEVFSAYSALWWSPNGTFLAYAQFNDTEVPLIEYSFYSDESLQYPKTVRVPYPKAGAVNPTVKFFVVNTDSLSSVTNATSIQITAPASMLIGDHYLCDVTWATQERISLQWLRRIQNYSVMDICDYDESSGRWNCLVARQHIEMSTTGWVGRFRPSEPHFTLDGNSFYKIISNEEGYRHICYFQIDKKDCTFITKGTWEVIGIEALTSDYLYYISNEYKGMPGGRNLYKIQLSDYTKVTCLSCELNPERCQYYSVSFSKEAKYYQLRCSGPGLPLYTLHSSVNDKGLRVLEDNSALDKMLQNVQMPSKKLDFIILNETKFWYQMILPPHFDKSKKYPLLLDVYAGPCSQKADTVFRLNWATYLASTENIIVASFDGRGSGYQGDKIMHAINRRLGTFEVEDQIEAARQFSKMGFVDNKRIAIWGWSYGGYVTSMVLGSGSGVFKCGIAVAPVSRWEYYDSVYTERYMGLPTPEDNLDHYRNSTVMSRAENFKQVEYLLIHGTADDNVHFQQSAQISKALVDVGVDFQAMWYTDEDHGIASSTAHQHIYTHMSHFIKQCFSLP

glucagon
hydrolysis of glucagon by serum DP IV (MALDI-TOF) (serum DP IV): serum-DP IV hydrolyses glucagoni | cleavage of glucagon by DP IV (MALDI-TOF) (DP IV): removal of the dipeptides His-Ser and Gln-Gly occurs sequentially depending upon the incubation time

From US6319893A, “Raising blood sugar level in hypoglycemic mammals by administering inhibitors of dipeptidyl peptidase IV” (Probiodrug, priority 1998, dated 2001)
